Source: patent EP2275116A1

Target: human p21-activated kinase 1 (PAK1) (human) (UniProt Q13153)
Assay: cell-based or functional assay

Chain of UniProt Q13153 (Q13153 whole entry R237L/F379S, form in doubt): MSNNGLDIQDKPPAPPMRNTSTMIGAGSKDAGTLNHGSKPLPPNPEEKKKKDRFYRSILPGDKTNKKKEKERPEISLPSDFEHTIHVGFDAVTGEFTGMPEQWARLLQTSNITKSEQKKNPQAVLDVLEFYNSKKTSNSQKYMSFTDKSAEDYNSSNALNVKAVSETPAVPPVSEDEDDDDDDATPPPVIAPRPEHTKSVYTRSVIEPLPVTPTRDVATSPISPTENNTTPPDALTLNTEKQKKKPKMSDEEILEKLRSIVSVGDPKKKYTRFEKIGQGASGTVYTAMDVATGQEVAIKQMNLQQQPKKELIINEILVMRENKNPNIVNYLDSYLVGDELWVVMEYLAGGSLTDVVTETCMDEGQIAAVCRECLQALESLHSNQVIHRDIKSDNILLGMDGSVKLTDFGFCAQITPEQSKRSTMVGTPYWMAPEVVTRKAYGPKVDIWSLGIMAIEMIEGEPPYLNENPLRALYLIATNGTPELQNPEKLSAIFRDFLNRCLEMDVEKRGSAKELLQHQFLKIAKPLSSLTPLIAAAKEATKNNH

For “HA-tagged PAK1 inhibitory domain (PAK1 residues 83 to 149) (from UniProt P35465 83-149)”, the inhibition of IL-1β induced expression of PGE2 in SW1353 cells (ELISA of supernatant) was > 50%, the inhibition of IL-1β-induced expression of MMP13 in SW1353 cells (ELISA of supernatant) was 55% and the inhibition of basal MMP13 expression in non-stimulated SW1353 cells (ELISA of supernatant) was > 80%.
